Data taken from US20130079286A1 (Pieris, published 2013).

Experiments:
[1] = molecular target: T1, Aβ40 peptide, non-labeled (human); assay: SPOT membrane of overlapping Aβ40 peptides, 50 nM mutein
T1 construct: Non-labeled synthetic peptide (W. M. Keck Laboratory); also called Abeta40; amyloid beta peptide

MBP-Aβ40 fusion protein [2] = molecular target: T2, MBP-Aβ40 fusion protein; assay: direct ELISA: MBP-Aβ40 coated, mutein titrated, detected via Strep-tag II
T2 construct: the entry may be a nucleic acid; Biotin-labelled in the capture ELISA, unlabeled in the direct ELISA and SPR; also called MBP-Abeta40
Protocol: The Aβ targets Trx-Aβ28 and MBP-Aβ40 as well as the control protein maltose binding protein (MBP) were immobilized at 2 μM in PBS over night. Bound Lcn2 muteins were detected via their Strep-tag II using Streptavidin/AP followed by a chromogenic reaction with pNPP. As a control, the binding of wild-type (wt) lipocalin was tested. The data were fitted to a monovalent binding model.
Alternatively, for a “direct” ELISA, 2 μM unlabeled Aβ40 target from Example 2 was adsorbed onto a 96-well MaxiSorp polystyrene microliter plate (Nunc, Langenselbold, Germany) and incubated with the purified Lcn2 mutein, which was detected via the Strep-tag II using a 1:1500 dilution of Streptavidin/AP conjugate (GE Healthcare UK Ltd, Buckinghamshire, UK). As a control, 2 μM MBP from Example 2 was adsorbed onto the ELISA plate. Absorption at 405 nm was measured in a SpectraMax 250 reader (Molecular Devices, Sunnyvale, USA).

MBP-Aβ40 fusion protein [3] = molecular target: T2, MBP-Aβ40 fusion protein; assay: capture ELISA: mutein captured, biotinylated MBP-Aβ40 titrated
Protocol: (§1) FIG. 5 depicts the binding activity of the Lcn2 muteins H1-G1, S1-A4, and US7 in capture ELISAs with different biotinylated Aβ targets. StrepMAB-Immo at 10 μg/ml was immobilized on microtitre plates and employed for capturing of 1 JAM Lcn2 muteins via the Strep-tag H. In figures A to C the binding of the Lcn2 muteins S1-A4 and US7 to (A) biotinylated Aβ40, (B) biotinylated Trx-Aβ28, and (C) biotinylated MBP-Aβ40 are shown. Binding was detected by incubation with ExtrAvidin/AP and a subsequent chromogenic reaction with pNPP. Ovalbumin (Ova), thioredoxin (Trx), and maltose binding protein (MBP) were used as negative controls. Additionally, binding of wild-type (wt) lipocalin was tested. The data were fitted to a monovalent binding model.
For selective capturing of the Lcn2 muteins carrying the C-terminal Strep-tag II (Schmidt and Skerra (2007) Nat. Protoc. 2, 1528-1535), a 96-well MaxiSorp polystyrene microtitre plate (Nunc, Langenselbold, Germany) was coated with 10 μg/mL StrepMAB-Immo (IBA, Göttingen, Germany) in PBS over night at 4° C. and blocked with 3% (w/v) BSA in PBS/T at room temperature for 1 h. After 3 washing steps with PBS/T, 50 μL of a 1 μM solution of the purified Lcn2 muteins from Example 7 were applied to all wells for 1 h. […]

ovalbumin = molecular target: T3, ovalbumin (UniProt P01012 2-386); assay: capture ELISA: 1 µM Lcn2 protein captured via Strep-tag II on coated StrepMAB-Immo, biotinylated target titrated, ExtrAvidin/AP + pNPP
T3 sequence (looked up): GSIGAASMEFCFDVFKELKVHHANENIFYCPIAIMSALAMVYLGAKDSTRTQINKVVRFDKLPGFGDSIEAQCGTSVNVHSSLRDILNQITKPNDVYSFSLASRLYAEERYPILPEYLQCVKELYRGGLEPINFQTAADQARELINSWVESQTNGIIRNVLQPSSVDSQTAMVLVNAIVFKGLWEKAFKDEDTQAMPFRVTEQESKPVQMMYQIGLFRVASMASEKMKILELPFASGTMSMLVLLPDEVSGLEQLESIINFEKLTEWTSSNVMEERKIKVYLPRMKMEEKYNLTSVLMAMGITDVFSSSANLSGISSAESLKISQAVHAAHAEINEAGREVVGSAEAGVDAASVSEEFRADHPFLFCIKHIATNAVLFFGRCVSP
Protocol: as §1
(§2) For selective capturing of the Lcn2 muteins carrying the C-terminal Strep-tag II (Schmidt and Skerra (2007) Nat. Protoc. 2, 1528-1535), a 96-well MaxiSorp polystyrene microtitre plate (Nunc, Langenselbold, Germany) was coated with 10 μg/mL StrepMAB-Immo (IBA, Göttingen, Germany) in PBS over night at 4° C. and blocked with 3% (w/v) BSA in PBS/T at room temperature for 1 h. After 3 washing steps with PBS/T, 50 μL of a 1 μM solution of the purified Lcn2 muteins from Example 7 were applied to all wells for 1 h. After washing, 50 μL of a dilution series of the biotinylated targets Aβ40, MBP-Aβ40 or Trx-Aβ28 from Example 2 were added and incubated for 1 h whereby the biotinylated forms of Ova, MBP and Trx from Example 2 served as negative control proteins. The wells were washed again and bound conjugate was detected with 50 μL of ExtrAvidin/AP conjugate (Sigma-Aldrich, Steinheim, Germany) diluted 1:5000 in PBS/T for 1 h, followed by signal development in the presence of 100 μL 0.5 mg/mL p-nitrophenyl phosphate (AppliChem, Darmstadt, Germany) in 100 mM Tris/HCl, pH 8.8, 100 mM NaCl, 5 mM MgCl₂.

MBP-Aβ40 fusion protein [4] = molecular target: T2, MBP-Aβ40 fusion protein; assay: SPR (Biacore X), MBP-Aβ40 amine-coupled, mutein as analyte
Protocol: (§3) Real time analysis of Lcn2 muteins was performed on a Biacore X system (Biacore, Uppsala, Sweden) using PBS/T (PBS containing 0.005% (v/v) Tween 20) as running buffer. A 50 μg/mL solution of MBP-Aβ40 from Example 2 in 10 mM Na-acetate, pH 4.5 was immobilized onto a […] chip (Xantec, Düsseldorf, Germany) using standard amine coupling chemistry, resulting in a ligand density of 1455 resonance units (RU). […] The sensorgrams were corrected by subtraction of the corresponding signals measured for the control channel, which had been activated and blocked with ethanolamine. […] During this step the kₒₙ and koff rates were fitted globally, while the maximum response difference Rₘₐₓ was fitted locally for each curve.

Trx-Aβ28 fusion protein = molecular target: T4, Trx-Aβ28 fusion protein (Escherichia coli (strain K12), UniProt P0AA25 1-76 = thioredoxin, Biotin-labelled through an NHS ester (2:1) in the capture and competitive ELISAs; unlabeled in the direct ELISA and as competitor.); assay: competitive ELISA: mutein captured, 5 nM biotinylated Trx-Aβ28 as tracer, unlabeled Trx-Aβ28 varied as competitor
T4 construct: the entry may be a nucleic acid; also called TrxAbeta28H6

[5] = molecular target: T5, biotinylated Aβ40 peptide (human, C-terminal biotin group attached via a lysine spacer); assay: capture ELISA: mutein captured via Strep-tag II on StrepMAB-Immo, biotinylated Aβ40 titrated
T5 construct: Synthetic peptide (Peptide Speciality Laboratory) with a C-terminal biotin on a lysine spacer; used in the capture ELISAs
Protocol: as §1, §2

MBP-Aβ40 fusion protein [6] = molecular target: T2, MBP-Aβ40 fusion protein; assay: SPR (Biacore), MBP-Aβ40 amine-coupled (1455 RU), mutein as analyte
Protocol: FIG. 8 depicts the kinetic real time analysis of Lcn2 muteins S1-A4 (A) and US7 (B) measured on a Biacore instrument at a flow rate of 10 μl/min. The MBP-Aβ40 fusion protein was coupled via amine chemistry on a CMD 200I chip (ΔRU=1455) and each of the purified Lcn2 muteins was applied in a series at different concentrations. The measured signal is shown as a grey line whereas the curve fit is depicted as a black line in each case.
as §3

T1 sequence (peptide, as listed by the source): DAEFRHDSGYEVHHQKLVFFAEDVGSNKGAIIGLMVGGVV
T5 sequence (peptide, as listed by the source): as above

B1: Lcn2 mutein S1-A4 (designed binder)
chain: QDSTSDLIPAPPLSKVPLQQNFQDNQFHGKWYVVGVAGNYTLREDKDPLKMYATIYELKEDKSYNVTSVGFRLKKCNYKIRTFVPGSQPGEFTLGIIKSQPGMTSYLVRVVSTNYNQHAMVFFKTVGQNREMFNITLYGRTKELTSELKENFIRFSKSLGLPENHIVFPVPIDQCIDG
- binding result [1]: binds
- Kd (MBP-Aβ40 fusion protein [2]): 149 nM
- Kd (MBP-Aβ40 fusion protein [3]): 4.7 nM
- binding result (ovalbumin): no binding (tested: 250 nM)
- Kd (MBP-Aβ40 fusion protein [4]): 1.7 nM
- Kd (Trx-Aβ28 fusion protein): 21.7 nM
- Kd [5]: 2.7 nM
- koff (MBP-Aβ40 fusion protein [6]): 8.36e-05 s⁻¹
- kon (MBP-Aβ40 fusion protein [6]): 48000 M⁻¹ s⁻¹
